US10100114B2, “Antibodies specific for TROP-2 and their uses” (RINAT NEUROSCIENCE CORP., priority 2011, dated 2018)

Legend:
BxPC3 xenograft = assay: In vivo efficacy of humanized Trop-2 ADCs, pancreatic tumor BxPC3 xenograft model; parameters: species or system CB17/SCID mice; conditions: single dose, tail vein; FIGS. 9A-9C
Protocol: In vivo efficacy studies of Trop-2 ADCs were performed with target-expressing BxPC3 xenograft model. Two million BxPC3 pancreatic cancer cells were implanted subcutaneously into 5-8 weeks old CB17/SCID mice until the tumor sizes reached between 300-400 mm^3. […] Tumor volume was measured once a week by a Caliper device and calculated with the following formula: Tumor volume=(length×width^2)/2. Studies were terminated before their tumor volumes reached 2000 mm^3.

[1] = tested on: SW620 cells (Trop-2 non-expressing); assay: Cytotoxicity of ADCs (CellTiter-Glo), SW620; assay type: cell-based; conditions: Table 13; SW620, Trop2 expression −; 96 hours; concentration of total Ab
[2] = tested on: pancreatic cancer patient derived xenograft (PDX Pan144607); assay: In vivo efficacy of Trop-2 ADC, pancreatic PDX Pan144607; parameters: species or system CB17/SCID mice; conditions: single dose of 1.5, 3.0 and 6.0 mg/kg, tail vein; FIG. 13
Protocol: In vivo efficacy study of Trop-2 ADC using humanized anti-Trop-2 antibody (h7E6SVG) conjugated with vc0101 or PEG6MMAD was performed with target-expressing pancreatic cancer patient derived xenograft model (PDX Pan144607). This tumor sample was derived from surgical specimen and propagated in NSG mice (Jackson Laboratories, Bar Harbor, Me.). For efficacy studies, approximately 1-2 mm^3 of tumor fragments were implanted subcutaneously into the lateral flanks of CB17/SCID mice. Animals were randomized by tumor sizes once they reached ˜300 mm^3, and single dose of 1.5, 3.0 and 6.0 mg/kg h7E6SVG-N297Q/K222R-PEG6MMAD and the control conjugate were administered through bolus tail vein injection. Tumor volume was measured once a week by a Caliper device and calculated with the following formula: Tumor volume=(length×width^2)/2. Studies were terminated before their tumor volumes reach 2000 mm^3.

[3] = tested on: pancreatic cancer patient derived xenograft (PDX Pan0135); assay: In vivo efficacy of Trop-2 ADC, pancreatic PDX Pan0135; conditions: 6 mg/kg single dose, tail vein; FIG. 14
Protocol: In vivo efficacy study of Trop-2 ADC using humanized anti-Trop-2 antibody (h7E6SVG) conjugated with PEG6MMAD was performed with target-expressing pancreatic cancer patient derived xenograft model (PDX Pan0135) from Jackson Laboratories. For efficacy studies, approximately 1-2 mm^3 of tumor fragments were implanted subcutaneously into the lateral flanks of the animals. Animals were randomized by tumor sizes once they reached ˜300 mm^3 and 6 mg/kg of h7E6SVG-N297Q/K222R-PEG6MMAD and the control conjugate were administered through bolus tail vein injection with single dose. Tumor volume was measured once a week by a Caliper device and calculated with the following formula: Tumor volume=(length×width^2)/2. Studies were terminated before their tumor volumes reached 2000 mm^3.

B1: h7E6SVG-N297Q/K222R-PEG6MMAD: h7E6SVG with N297Q/K222R mutations conjugated with PEG6-propionyl-MMAD (conjugate)
VH: QVQLQESGPGLVKPSETLSLTCTVSGGSISSYGVHWIRQPPGKGLEWIGVIWTSGVTDYNSALMGRVTISVDTSKNQFSLKLSSVTAADTAVYYCARDGDYDRYTMDYWGQGTLVTVSS
VL: DIVMTQSPDSLAVSLGERATINCRASKSVSTSGYSYMHWYQQKPGQPPKLLIYLASNLESGVPDRFSGSGSGTDFTLTISSLQAEDVAVYYCQHSRELPYTFGQGTKLEIK
BxPC3 xenograft
  tumor response, BxPC3 xenograft: tumor regression
[1]
  IC50: > 267 nM
[2]
  tumor response, Pan144607 PDX: tumor regression
[3]
  tumor response, Pan0135 PDX: tumor regression
